First the molecules themselves.
B1: Azoarcus group I ribozyme (parent)
chain: GUGCCUUGCGCCGGGAAACCACGCAAGGGAUGGUGUCAAAUUCGGCGAAACCUAAGCGCCCGCCCGGGCGUAUGGCAACGCCGAGCCAAGCUUCGGCGCCUGCGCCGAUGAAGGUGUAGAGACUAGACGGCACCCACCUAAGGCAAACGCUAUGGUGAAGGCAUAGUCCAGGGAGUGGCGAAAGUCACACAAACCGG

Variants of B1 are the subject of the data set. The experiment in a line: reverse-splicing fitness (ratio to wild type); higher = more active; in vitro selection; Mg2+ level not given. In outline: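 An in vitro group I ribozyme library with randomized positions was T7-transcribed and gel-purified. In triplicate, 10 pmol RNA in EPPS pH 7.5 was reacted with 50 pmoles of a 30-nt RNA substrate for 1 h at 37 °C across several added MgCl2 levels (1–48 mM), then stopped with EDTA. Products were reverse transcribed from a substrate-complementary primer, PCR-amplified and sequenced (HiSeq 4000). Fitness is a variant's read proportion after selection over that before, normalised to wild type.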
On to A111U A120G A145U C169U U176G, for which the reverse-splicing fitness is 0.00682. As to A111U A120G A145U C169U U176C, the reverse-splicing fitness is 0.0495. For the variant A111U A120G A145U C169U U176A, the reverse-splicing fitness was determined as 0.0488.

As for A111U A120U A145G C150G C169U U176A, the reverse-splicing fitness amounted to 0.00644. On to A111U A120U A145G C150G C169U U176G, for which the reverse-splicing fitness was 0.00383. For A111U A120U A145G C150G C169U U176C, the reverse-splicing fitness amounted to 0.00615.

For the variant A111U A120U, the reverse-splicing fitness stood at 0.634.

On to A111U A120U A145G C150A U176G, for which the reverse-splicing fitness amounted to 0.00868.

Take A111U A120U A145G C150A U176A: the reverse-splicing fitness was 0.0364. On to A111U A120U A145G C150A U176C, for which the reverse-splicing fitness amounted to 0.0415. A111U A120G C169U: the reverse-splicing fitness is 0.155. Turning to A111U A120G C169G, the reverse-splicing fitness was found to be 0.218. As to A111U A120G C169A, the reverse-splicing fitness is 0.116. As to A111U A120U A145U C150A C169U U176C, the reverse-splicing fitness was 0.00324.

Take A111U A120U A145U C150A C169U U176A: the reverse-splicing fitness was found to be 0.00294.

Regarding A111U A120U A145U C150A C169U U176G, the reverse-splicing fitness was found to be 0.00245.

With A111U A120G A145U C150A C169G, the reverse-splicing fitness turned out to be 0.0206.

Regarding A111U A120G A145U C150A C169U, the reverse-splicing fitness was 0.0181.

Turning to A111U A120G A145U C150A C169A, the reverse-splicing fitness is 0.0164. With A111U A120U A145G C150G the figure was 0.0631. With A111U A120U A145G C150A the figure was 0.0883. With A111U A120U A145G C150U the figure was 0.486; with A111U A120G A145U C150U C169U U176A, 0.0396. Turning to A111U A120G A145U C150U C169U U176G, the reverse-splicing fitness is 0.0055. On to A111U A120G A145U C150U C169U U176C, for which the reverse-splicing fitness came out at 0.0395.

As to A111U A120U A145G C150G C169U, the reverse-splicing fitness amounted to 0.0125. With A111U A120U A145G C150G C169A the figure was 0.00796; with A111U A120U A145G C150G C169G, 0.01. Take A111U A120U A145C C150G C169U: the reverse-splicing fitness turned out to be 0.00895. On to A111U A120U A145C C150G C169A, for which the reverse-splicing fitness stood at 0.0033. Regarding A111U A120U A145C C150G C169G, the reverse-splicing fitness stood at 0.00697.

As for A111U A120U A145C C150G C169U U176A, the reverse-splicing fitness worked out at 0.00301. Regarding A111U A120U A145C C150G C169U U176C, the reverse-splicing fitness was 0.0029.

For the variant A111U A120U A145C C150G C169U U176G, the reverse-splicing fitness turned out to be 0.00228.

Turning to A111U A120U A145C C150U C169U U176G, the reverse-splicing fitness came to 0.0019. For the variant A111U A120U A145C C150U C169U U176A, the reverse-splicing fitness was 0.0036.

For A111U A120U A145C C150U C169U U176C, the reverse-splicing fitness came to 0.00285. A111U A120U A145G C150A C169A U176C: the reverse-splicing fitness is 0.0038. For A111U A120U A145G C150A C169A U176A, the reverse-splicing fitness was determined as 0.0049. With A111U A120U A145G C150A C169A U176G the figure was 0.00281.

For the variant A111U A120G C150G C169U U176A, the reverse-splicing fitness is 0.0137.

Take A111U A120G C150G C169U U176C: the reverse-splicing fitness was 0.0149. Turning to A111U A120G C150G C169U U176G, the reverse-splicing fitness is 0.00577. Consider A111U A120G C169G U176A, for which the reverse-splicing fitness is 0.0412. With A111U A120G C169G U176G the figure was 0.00419.

With A111U A120G C169G U176C, the reverse-splicing fitness worked out at 0.0539. Take A111U A120G A145U C150U C169A U176A: the reverse-splicing fitness turned out to be 0.0184. Regarding A111U A120G A145U C150U C169A U176G, the reverse-splicing fitness is 0.00508. Turning to A111U A120G A145U C150U C169A U176C, the reverse-splicing fitness turned out to be 0.0207.

For A111U A120U A145C C150A C169G U176A, the reverse-splicing fitness is 0.00297.

Consider A111U A120U A145C C150A C169G U176G, for which the reverse-splicing fitness amounted to 0.00184. As to A111U A120U A145C C150A C169G U176C, the reverse-splicing fitness is 0.00308.

For A111U A120G C150G C169A U176G, the reverse-splicing fitness stood at 0.0057. Take A111U A120G C150G C169A U176A: the reverse-splicing fitness is 0.00974. With A111U A120G C150G C169A U176C the figure was 0.00933; with A111U A120G C150A C169U U176A, 0.0295. Take A111U A120G C150A C169U U176G: the reverse-splicing fitness came out at 0.0082. Turning to A111U A120G C150A C169U U176C, the reverse-splicing fitness is 0.0205. Turning to A111U A120U A145C C169A, the reverse-splicing fitness was 0.00435.

As to A111U A120U A145C C169G, the reverse-splicing fitness was 0.0459. Take A111U A120U A145C C169U: the reverse-splicing fitness was found to be 0.0629. Consider A111U A120G U176G, for which the reverse-splicing fitness was 0.00656. Regarding A111U A120G U176A, the reverse-splicing fitness is 0.0388.

On to A111U A120G U176C, for which the reverse-splicing fitness came to 0.0497. Take A111U A120G A145U C150G C169G U176A: the reverse-splicing fitness stood at 0.00701.

As to A111U A120G A145U C150G C169G U176G, the reverse-splicing fitness came out at 0.00439.

For A111U A120G A145U C150G C169G U176C, the reverse-splicing fitness was found to be 0.0049.

On to A111U A120G A145U C150U U176A, for which the reverse-splicing fitness worked out at 0.0287. As for A111U A120G A145U C150U U176G, the reverse-splicing fitness was found to be 0.0059. On to A111U A120G A145U C150U U176C, for which the reverse-splicing fitness worked out at 0.0388. With A111U A120G A145G C169U U176G the figure was 0.00601; with A111U A120G A145G C169U U176C, 0.0538. Consider A111U A120G A145G C169U U176A, for which the reverse-splicing fitness amounted to 0.0467. With A111U A120U A145U, the reverse-splicing fitness worked out at 0.607. A111U A120U A145C: the reverse-splicing fitness was found to be 0.518.

A111U A120U A145G: the reverse-splicing fitness came out at 0.593.

For A111U A120U A145G C150A C169G U176G, the reverse-splicing fitness stood at 0.00267.

Consider A111U A120U A145G C150A C169G U176C, for which the reverse-splicing fitness came out at 0.00547.

Regarding A111U A120U A145G C150A C169G U176A, the reverse-splicing fitness turned out to be 0.00807. Regarding A111U A120U A145G C169A U176A, the reverse-splicing fitness stood at 0.00212. A111U A120U A145G C169A U176G: the reverse-splicing fitness was 0.00247. With A111U A120U A145G C169A U176C the figure was 0.00376; with A111U A120G C150U C169U, 0.0857.

For the origin of these results see the RNAGym collection of RNA variant scans (doi:10.1093/molbev/msab373).
